From US20080004355A1, “Method for Inhibiting Telomerase Activity and an Agent for Inhibiting the Same” (priority 2004, published 2008)
Where a chain is given by its changes, count along the chain named. Each block holds one molecule with its values, some of them ahead of it. Peptide text beside a SMILES is read from it. * marks the point of attachment. Cbz = O=C(OCc1ccccc1)*

What was measured:
TERT = test: Effect of proteasome inhibitor on amount of intracellular TERT (transient TERT expression, Western blotting); type: cell-based, human; conditions: HEK293T cells transfected with pCIneo-TERT; final concentration 25 μM, 24 hours; compared with DMSO control; Western blotting with anti-TERT antibodies
Text: NEDD8 is a ubiquitin-like protein, and is known to covalently conjugate to proteins for post translational modification of proteins. Only a cullin family protein, which is one of the subunits of a ubiquitin ligase complex, has been reported as a protein that undergoes NEDD8 conjugation (Non-patent References 5 and 6). […] NEDD8 has a significant homology with ubiquitin at the level of both primary structure and tertiary structure. Therefore, it is plausible that NEDD8 conjugation to proteins works as a signal for proteasome-dependent protein degradation (Non-patent Reference 5), similar to ubiquitination. Thus, it can be reasoned, that there exists a regulatory system for TERT degradation via modification by NEDD8 conjugation to TERT and NEDD8 deconjugation by USP21. Accordingly, an investigation was conducted to determine whether TERT may undergo proteasome-dependent degradation. […]
8×10^4 cells/well of HEK293T cells were cultured overnight at 37° C. under the atmosphere of 5% CO2 in 12 well plates, and then transfected with 1 μg of pCIneo-TERT using FuGENE6 Transfection Reagent (Roche). […] Further, β-tubulin, an internal control protein in the cell lysates, was detected by Western blotting using anti-β-tubulin (H-235) antibodies (Santa Cruz). […]

[1] = molecular target: T1, N-terminal FLAG-tagged TERT (human, UniProt O14746 1-1132); test: co-expression in HEK293T cells, immunoprecipitation with anti-HA agarose, Western blot with anti-FLAG
T1 construct: Expressed transiently in HEK293T cells from pCI-FLAG-TERT (human TERT cDNA cloned from human thymus cDNA); present in the cell lysate; also called FLAG-TERT
Protocol: 4×10⁵ HEK293T cells were cultured overnight at 37° C. under the atmosphere of 5% CO₂ in a dish with 60 mm diameter, and then transfected with 2 μg of pCI-FLAG-TERT alone or in combination with 2 μg of pCI-HA-USP21 or pCI-HA-NEDD8, using FuGENE6 Transfection Reagent (Roche). After 2 days of culturing, the cells were collected and suspended in 500 μl of cell lysis buffer (20 mM Tris-HCl, pH7.4/150 mM NaCl/1 mM ethylenediaminetetraacetic acid (EDTA)/1 mM ethylene glycol-bis-tetraacetic acid (EGTA)/1% Triton X-100/2.5 mM sodium pyrophsphate/1 mM β-glycerophsphate/1 mM Na₃VO₄/protease inhibitor cocktail), and then left to stand on ice for 20 minutes. Subsequently, centrifugation was conducted at 4° C. for 10 minutes at 14,000 rpm to collect the supernatants. The supernatants that were collected were used as cell lysates. […] The resulting supernatant was added to 10 μl of anti-HA antibody-conjugated agarose (anti-HA(Y-11)-agaraose, Santa cruz), and then subjected to overturned mixing at 4° C. overnight, followed by centrifugation to collect the beads. The beads were washed with the cell lysis buffer four times, and then added with 30 μl of 2× SDS sample buffer (125 mM Tris HCl, pH 6.8/4% sodium dodecylsulphate (SDS)/20% glycerol/0.01% bromophenol blue). […]

[2] = molecular target: TERT modified with one or more FLAG-NEDD8 molecules (NEDD8-conjugated TERT)

T1 sequence (O14746 whole entry): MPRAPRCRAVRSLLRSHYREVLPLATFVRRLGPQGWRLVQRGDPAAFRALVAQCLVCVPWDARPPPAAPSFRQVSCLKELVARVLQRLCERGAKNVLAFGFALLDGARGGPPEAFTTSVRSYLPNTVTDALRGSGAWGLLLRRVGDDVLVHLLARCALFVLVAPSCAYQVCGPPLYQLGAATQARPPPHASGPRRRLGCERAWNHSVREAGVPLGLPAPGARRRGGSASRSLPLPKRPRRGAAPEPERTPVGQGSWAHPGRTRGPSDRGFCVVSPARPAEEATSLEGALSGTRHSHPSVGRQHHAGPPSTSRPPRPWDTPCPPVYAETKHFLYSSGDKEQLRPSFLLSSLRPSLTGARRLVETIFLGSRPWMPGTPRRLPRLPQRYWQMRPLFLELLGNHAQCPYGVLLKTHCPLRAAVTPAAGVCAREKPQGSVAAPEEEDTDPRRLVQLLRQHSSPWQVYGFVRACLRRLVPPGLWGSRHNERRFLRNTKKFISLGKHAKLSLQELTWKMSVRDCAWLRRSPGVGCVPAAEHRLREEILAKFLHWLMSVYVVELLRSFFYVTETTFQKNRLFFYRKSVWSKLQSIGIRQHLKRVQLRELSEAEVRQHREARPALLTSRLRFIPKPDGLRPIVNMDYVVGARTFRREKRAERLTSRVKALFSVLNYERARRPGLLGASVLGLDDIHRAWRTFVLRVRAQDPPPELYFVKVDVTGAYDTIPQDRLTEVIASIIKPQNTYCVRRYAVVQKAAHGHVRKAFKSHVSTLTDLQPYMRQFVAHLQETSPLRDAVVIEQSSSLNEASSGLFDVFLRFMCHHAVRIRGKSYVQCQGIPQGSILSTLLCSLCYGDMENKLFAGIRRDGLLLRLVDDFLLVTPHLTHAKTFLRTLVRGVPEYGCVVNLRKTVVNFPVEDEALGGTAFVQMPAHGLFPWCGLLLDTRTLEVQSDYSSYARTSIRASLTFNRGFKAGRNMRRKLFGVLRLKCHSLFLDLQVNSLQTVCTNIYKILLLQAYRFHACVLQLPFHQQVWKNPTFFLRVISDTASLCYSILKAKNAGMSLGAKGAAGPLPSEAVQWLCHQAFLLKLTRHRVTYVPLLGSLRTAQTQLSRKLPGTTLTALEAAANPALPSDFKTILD

Molecule: CC(C)C[C@@H](C=O)NC(=O)[C@H](CC(C)C)NC(=O)[C@H](CC(C)C)NC(=O)OCc1ccccc1 [MG132] (Cbz-Leu-Leu-Leu-aldehyde)
amount of TERT in cell lysate (TERT): increased amount of TERT

binding result [1]: binds
B1: N-terminal HA-tagged USP21 (enzyme, not shown: small tags and cut ends)
chain: MPQASEHRLGRTREPPVNIQPRVGSKLPFAPRARSKERRNPASGPNPMLRPLPPRPGLPDERLKKLELGRGRTSGPRPRGPLRADHGVPLPGSPPPTVALPLPSRTNLARSKSVSSGDLRPMGIALGGHRGTGELGAALSRLALRPEPPTLRRSTSLRRLGGFPGPPTLFSIRTEPPASHGSFHMISARSSEPFYSDDKMAHHTLLLGSGHVGLRNLGNTCFLNAVLQCLSSTRPLRDFCLRRDFRQEVPGGGRAQELTEAFADVIGALWHPDSCEAVNPTRFRAVFQKYVPSFSGYSQQDAQEFLKLLMERLHLEINRRGRRAPPILANGPVPSPPRRGGALLEEPELSDDDRANLMWKRYLEREDSKIVDLFVGQLKSCLKCQACGYRSTTFEVFCDLSLPIPKKGFAGGKVSLRDCFNLFTKEEELESENAPVCDRCRQKTRSTKKLTVQRFPRILVLHLNRFSASRGSIKKSSVGVDFPLQRLSLGDFASDKAGSPVYQLYALCNHSGSVHYGHYTALCRCQTGWHVYNDSRVSPVSENQVASSEGYVLFYQLMQEPPRCL
notes: Expressed transiently in HEK293T cells from pCI-HA-USP21 (human USP21 cDNA cloned from human kidney cDNA); also called HA-USP21
smear-like signals in a high molecular region indicating TERT modified with one or more FLAG-NEDD8 molecules (IP anti-TERT, Western blot anti-FLAG) [2]: significantly decreased by co-expression of HA-USP21

B2: N-terminal HA-tagged inactive USP21 (protein)
chain: B1 chain with C221A
smear-like signals in a high molecular region indicating TERT modified with one or more FLAG-NEDD8 molecules (IP anti-TERT, Western blot anti-FLAG) [2]: Such decrease of the signals was not observed when co-expressing the inactive USP21, HA-USP21C221A, instead of HA-USP21
